What was measured:
[1] = target: ApHt_20, IsCT-like antimicrobial venom peptide from Mesobuthus martensii Karsch (Mesobuthus martensii Karsch)
[2] = target: ApHt_20, IsCT-like antimicrobial venom peptide from Mesobuthus martensii Karsch (Mesobuthus martensii Karsch); remark: listed apart in the source

Substance “HAP-1, short-chain highly acidic peptide from Mesobuthus martensii Karsch” has an agar diffusion assay against Staphylococcus aureus AB94004: minimum concentration of HAP-1 required to completely inhibit the inhibition zone made by 40 nM ApHt 20 [1] of 140 nM and an MIC of ApHt 20 against Staphylococcus aureus AB94004 in the presence of 32 μM HAP-1 (8 μM without HAP-1) [2] of 16 µM.

From article PMC6321396
